Results published in the Immune Epitope Database (IEDB).

How the values were obtained:
Test in all cases: IEDB peptide-MHC binding, purified MHC/competitive/radioactivity; ≥ and ≤ were set here for values at or beyond the usual limits of such assays
Conditions in all cases: source organism: Homo sapiens
HLA-A*11:01 = biological target: HLA-A*11:01
HLA-A*02:01 = biological target: HLA-A*02:01
HLA-A*03:01 = biological target: HLA-A*03:01
HLA-B*27:05 = biological target: HLA-B*27:05
HLA-B*08:01 = biological target: HLA-B*08:01
HLA-A*68:01 = biological target: HLA-A*68:01
HLA-A*01:01 = biological target: HLA-A*01:01
HLA-A*33:01 = biological target: HLA-A*33:01
HLA-A*30:01 = biological target: HLA-A*30:01
HLA-A*31:01 = biological target: HLA-A*31:01

Sequence	IC50 (HLA-A*11:01)	IC50 (HLA-A*02:01)	IC50 (HLA-A*03:01)	IC50 (HLA-B*27:05)	IC50 (HLA-B*08:01)	IC50 (HLA-A*68:01)	IC50 (HLA-A*01:01)	IC50 (HLA-A*33:01)	IC50 (HLA-A*30:01)	IC50 (HLA-A*31:01)
LAKLLGAEEK	≥ 50 µM	≥ 50 µM	43.5 µM	≥ 50 µM	≥ 50 µM	2.01 µM	≥ 50 µM	20.3 µM	37.3 µM	29.9 µM
VAIKTSPKAN	≥ 20 µM	≥ 20 µM	≥ 20 µM	–	–	–	–	–	–	–
IKTSPKANK	≥ 20 µM	≥ 20 µM	16.5 µM	–	–	–	–	–	–	–
VAIKTSPKA	≥ 20 µM	≥ 20 µM	≥ 20 µM	–	–	–	–	–	–	–
IPVAIKTSPKA	≥ 20 µM	≥ 20 µM	≥ 20 µM	–	–	–	–	–	–	–
AIKTSPKA	≥ 20 µM	≥ 20 µM	≥ 20 µM	–	–	–	–	–	–	–
KIPVAIKTS	≥ 20 µM	≥ 20 µM	≥ 20 µM	–	–	–	–	–	–	–
AIKTSPKAN	≥ 20 µM	≥ 20 µM	≥ 20 µM	–	–	–	–	–	–	–
IPVAIKTS	≥ 20 µM	≥ 20 µM	≥ 20 µM	–	–	–	–	–	–	–
KTSPKANKEIL	≥ 20 µM	≥ 20 µM	≥ 20 µM	–	–	–	–	–	–	–
VKIPVAIKT	≥ 20 µM	≥ 20 µM	≥ 20 µM	–	–	–	–	–	–	–
KIPVAIKTSP	≥ 20 µM	≥ 20 µM	≥ 20 µM	–	–	–	–	–	–	–
PVAIKTSP	≥ 20 µM	≥ 20 µM	≥ 20 µM	–	–	–	–	–	–	–
FGLAKLLGA	≥ 50 µM	0.107 µM	≥ 50 µM	3.7 µM	0.0266 µM	≥ 50 µM	≥ 50 µM	≥ 50 µM	8.77 µM	8.45 µM
HVKITDFGL	≥ 50 µM	≥ 50 µM	≥ 50 µM	41.3 µM	0.475 µM	≥ 50 µM	≥ 50 µM	6.53 µM	7.63 µM	4.67 µM
VKIPVAIKTSP	≥ 20 µM	≥ 20 µM	≥ 20 µM	–	–	–	–	–	–	–
IKTSPKAN	≥ 20 µM	≥ 20 µM	≥ 20 µM	–	–	–	–	–	–	–
GRAKLLGAEEK	≥ 50 µM	≥ 50 µM	42.9 µM	0.0438 µM	≥ 50 µM	≥ 50 µM	≥ 50 µM	≥ 50 µM	≥ 50 µM	4.86 µM
GLAKLLGAEEK	≥ 50 µM	≥ 50 µM	0.664 µM	14.7 µM	3.37 µM	≥ 50 µM	≥ 50 µM	≥ 50 µM	≥ 50 µM	1.06 µM
KTSPKANKEI	≥ 20 µM	≥ 20 µM	≥ 20 µM	–	–	–	–	–	–	–
VKIPVAIKTS	≥ 20 µM	≥ 20 µM	≥ 20 µM	–	–	–	–	–	–	–
IKTSPKANKE	≥ 20 µM	≥ 20 µM	≥ 20 µM	–	–	–	–	–	–	–

More lines, now with the values ahead:

IC50 (HLA-A*11:01)	IC50 (HLA-A*02:01)	IC50 (HLA-A*03:01)	IC50 (HLA-B*27:05)	IC50 (HLA-B*08:01)	IC50 (HLA-A*68:01)	IC50 (HLA-A*01:01)	IC50 (HLA-A*33:01)	IC50 (HLA-A*30:01)	IC50 (HLA-A*31:01)	Sequence
15.1 µM	≥ 20 µM	11.2 µM	–	–	–	–	–	–	–	EKVKIPVAIKT
4.65 µM	≥ 20 µM	0.584 µM	–	–	–	–	–	–	–	AIKTSPKANK
0.133 µM	–	–	–	–	–	–	–	–	–	KITDFGLAK
≥ 20 µM	≥ 20 µM	≥ 20 µM	–	–	–	–	–	–	–	IKTSPKANKEI
≥ 20 µM	≥ 20 µM	≥ 20 µM	–	–	–	–	–	–	–	KIPVAIKT
11.6 µM	≥ 20 µM	9.32 µM	–	–	–	–	–	–	–	PVAIKTSPKA
10.2 µM	≥ 20 µM	0.397 µM	–	–	–	–	–	–	–	KVKIPVAIKT
1.98 µM	≥ 20 µM	3.68 µM	–	–	–	–	–	–	–	VAIKTSPK
0.862 µM	≥ 20 µM	0.253 µM	–	–	–	–	–	–	–	KIPVAIKTSPK
0.782 µM	≥ 20 µM	0.529 µM	–	–	–	–	–	–	–	PVAIKTSPK
3.35 µM	≥ 20 µM	1.66 µM	–	–	–	–	–	–	–	IPVAIKTSPK
1.63 µM	≥ 20 µM	1.85 µM	–	–	–	–	–	–	–	VAIKTSPKANK
9.92 µM	≥ 20 µM	1.59 µM	–	–	–	–	–	–	–	AIKTSPKANKE
1.69 µM	≥ 20 µM	0.679 µM	–	–	–	–	–	–	–	KTSPKANK
21.7 µM	≥ 50 µM	6.56 µM	10.5 µM	≥ 50 µM	28.9 µM	≥ 50 µM	35.6 µM	1.77 µM	0.817 µM	RAKLLGAEEK
11.4 µM	≥ 20 µM	0.508 µM	–	–	–	–	–	–	–	KVKIPVAIKTS
6.43 µM	≥ 20 µM	4.5 µM	–	–	–	–	–	–	–	PVAIKTSPKAN
